Results reported in PMC4678816, “Structural basis for suppression of hypernegative DNA supercoiling by E. coli topoisomerase I”.

B1: DNA bubble substrate (G-strand/T-strand) (mixed)
DNA 1: GCCCTGAAAGATTATGGAATGCGATTAGTTCAAGAGCGTGAGCG
DNA 2: CGCTCACGCTCTTGAAGTAGAGGAAGGACATAATCTTTCAGGGC
B2: O29-O20 partial duplex (mixed)
DNA 1: GCTAAACCTGAAAGATTATGCGATTTGGG
DNA 2: CATAATCTTTCAGGTTTAGC

Legend:
EcTOP1-G116S = EcTOP1-G116S (Escherichia coli, UniProt P06612 1-865, G116S); experiment: DNase I footprinting; 5 mM MgCl2; partial protection of double-stranded region, both strands; Footprinting: 40 mM Tris-HCl (pH not stated), 0.1 mg/ml BSA, 5 mM MgCl2, 37 C, 1 h; crystals: 0.125 M ammonium sulfate, 0.1 M MES pH 6.0, 1 mM ZnSO4, 19% PEG MME 5000, 24 C; conditions: protein: recombinant; label: 5' 32P on G-strand or T-strand; duplex with 12-nt unpaired bubble
[1] = target: E. coli topoisomerase I (EcTOP1) (Escherichia coli, UniProt P06612 1-865); experiment: X-ray crystallography; 1 mM ZnSO4, pH 6.0; 2.9 A; ssDNA 3' end bound by D5, D7, D8, D9 and R189; Footprinting: 40 mM Tris-HCl (pH not stated), 0.1 mg/ml BSA, 5 mM MgCl2, 37 C, 1 h; crystals: 0.125 M ammonium sulfate, 0.1 M MES pH 6.0, 1 mM ZnSO4, 19% PEG MME 5000, 24 C; conditions: protein: recombinant; tags: N-terminal His6 removed with TEV protease; label: none in crystal; 3' overhang 9 nt on O29; 20 bp duplex

| Binder | binding result (EcTOP1-G116S) | binding result [1] |
| --- | --- | --- |
| B1 | binds |  |
| B2 |  | binds |
